Experimental data as given in patent US20220357345A1.

Experiments:
[1] = target: Aβ1-42 labelled with HiLyte Fluor 488 (UniProt P05067); assay: microscale thermophoresis (Monolith NT.115); labelled Aβ1-42 kept at 4 °C for one week (oligomers and fibres), PPP serially diluted
[2] = target: Aβ1-42 labelled with HiLyte Fluor 488 (UniProt P05067); assay: microscale thermophoresis (Monolith NT.115); HiLyte Fluor 488-labelled Aβ1-42 at 80 nM in PBS, PPP serially diluted; freshly dissolved Aβ1-42

Chain of UniProt P05067 (P05067 672-713 limits assumed): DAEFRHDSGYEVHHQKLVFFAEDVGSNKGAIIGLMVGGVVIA

- Kd [1]: 25.4 nM
- Kd [2]: 6.6 nM
Substance: Aβ-binding polymer (phagocytosis-promoting peptide, PPP): small peptide chain randomly synthesized from glutamic acid, lysine, alanine and tyrosine, molecular weight 4 kD to 52 kD (average 6.5 kD)
